Laboratory results reported in patent US20220267464A1 (Hoffmann-La Roche, published 2022).
Positions count from the first letter of the chain named. Numbers in names are those of the source.

T1: human CEACAM5 (carcinoembryonic antigen, CEA) on cells (human, UniProt P06731 35-685)
T1 construct: endogenous on MKN45 gastric adenocarcinoma cells; full-length cDNA stably transfected in the CHO-K1 clones; also called huCEACAM5; MKN45 cells
T1 sequence: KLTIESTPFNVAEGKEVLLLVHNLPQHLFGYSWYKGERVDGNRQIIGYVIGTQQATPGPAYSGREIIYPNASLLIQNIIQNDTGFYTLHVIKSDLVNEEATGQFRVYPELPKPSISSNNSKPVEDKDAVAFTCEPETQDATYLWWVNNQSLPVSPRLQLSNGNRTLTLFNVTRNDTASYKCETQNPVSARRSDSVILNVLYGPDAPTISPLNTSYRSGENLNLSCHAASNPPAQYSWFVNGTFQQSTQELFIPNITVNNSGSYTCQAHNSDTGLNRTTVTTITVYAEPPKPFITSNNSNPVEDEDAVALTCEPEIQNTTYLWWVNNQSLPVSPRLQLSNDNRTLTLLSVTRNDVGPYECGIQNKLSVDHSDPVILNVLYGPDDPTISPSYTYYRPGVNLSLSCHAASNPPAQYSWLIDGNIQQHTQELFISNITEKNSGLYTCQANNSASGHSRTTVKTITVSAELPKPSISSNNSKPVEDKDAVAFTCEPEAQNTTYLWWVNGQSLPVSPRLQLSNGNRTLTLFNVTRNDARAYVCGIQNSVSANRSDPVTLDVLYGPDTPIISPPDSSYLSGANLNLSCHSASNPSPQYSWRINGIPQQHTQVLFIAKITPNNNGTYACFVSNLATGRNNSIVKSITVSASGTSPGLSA

B1: P1AE0096-001 MFE23 huIgG1 PG LALA (parental) (antibody, V domains shown)
VH: QVKLQQSGAELVRSGTSVKLSCTASGFNIKDSYMHWLRQGPEQGLEWIGWIDPENGDTEYAPKFQGKATFTTDTSSNTAYLQLSSLTSEDTAVYYCNEGTPTGPYYFDYWGQGTTVTVSS
VL: ENVLTQSPAIMSASPGEKVTITCSASSSVSYMHWFQQKPGTSPKLWIYSTSNLASGVPARFSGSGSGTSYSLTISRMEAEDAATYYCQQRSSYPLTFGAGTKLELK
notes: murine variable domains on huIgG1 P329G L234A L235A; also called parental murine MFE23 huIgG1 P329G LALA antibody
B2: P1AE3113 (antibody, IgG1, V domains shown)
VH: QVQLVQSGAEVKKPGASVKVSCKASGFNIKDSYMHWVRQAPGQGLEWMGWIDPENGDTEYAPKFQGRVTMTTDTSISTAYMELSRLRSDDTAVYYCNEGTPTGPYYFDYWGQGTLVTVSS
VL: EIQMTQSPSSLSASVGDRVTITCRASQSISSYMHWYQQKPGKAPKLLIYSTSNLASGVPSRFSGSGSGTDFTLTISSLQPEDFATYYCQQRSSYPLTFGGGTKLEIK
notes: huIgG1 P329G LALA; also called MFE-H24 / MFE-L26
B3: P1AE3107 (antibody, IgG1, V domains shown)
VH: B2 VH
VL: EIQMTQSPSSLSASVGDRVTITCRASSSVPYMHWYQQKPGKAPKLLIYSTSNLASGVPSRFSGSGSGTDFTLTISSVQPEDFATYYCQQRSSYPLTFGGGTKLEIK
notes: huIgG1 P329G LALA; also called MFE-H24 / MFE-L27; huMFE23-L27-H24
B4: P1AE3116 (antibody, IgG1, V domains shown)
VH: B2 VH with N97A, E98R
VL: B3 VL with P30S, V77L
notes: huIgG1 P329G LALA; also called MFE-H27 / MFE-L25
B5: P1AE3117 (antibody, IgG1, V domains shown)
VH: B2 VH with D57G, E59N, P62Q
VL: B3 VL with P30S, V77L
notes: huIgG1 P329G LALA; also called MFE-H26 / MFE-L25
B6: P1AE3112 (antibody, IgG1, V domains shown)
VH: B2 VH with F27Y, N28T, I29F
VL: B2 VL
notes: huIgG1 P329G LALA; also called MFE-H25 / MFE-L26
B7: P1AE3092 (antibody, IgG1, V domains shown)
VH: B2 VH with N97A, E98R
VL: B3 VL with Y35L, N52S, A54Q
notes: huIgG1 P329G LALA; also called MFE-H27 / MFE-L29
B8: P1AE3105 (antibody, IgG1, V domains shown)
VH: B2 VH with D57G, E59N, P62Q
VL: B3 VL
notes: huIgG1 P329G LALA; also called MFE-H26 / MFE-L27; huMFE23-L27-H26
B9: P1AE3100 (antibody, IgG1, V domains shown)
VH: B2 VH with F27Y, N28T, I29F
VL: B3 VL with Y35L
notes: huIgG1 P329G LALA; also called MFE-H25 / MFE-L28; huMFE23-L28-H25
B10: P1AE3097 (antibody, IgG1, V domains shown)
VH: B2 VH with T72R
VL: B3 VL with Y35L
notes: huIgG1 P329G LALA; also called MFE-H28 / MFE-L28; huMFE23-L28-H28
B11: P1AE3121 (antibody, IgG1, V domains shown)
VH: B2 VH with T72R
VL: B3 VL with E1D, P30S, V77L
notes: huIgG1 P329G LALA; also called MFE-H28 / MFE-L24
B12: P1AE3115 (antibody, IgG1, V domains shown)
VH: B2 VH with T72R
VL: B3 VL with P30S, V77L
notes: huIgG1 P329G LALA; also called MFE-H28 / MFE-L25
B13: P1AE3110 (antibody, IgG1, V domains shown)
VH: B2 VH with N97A, E98R
VL: B2 VL
notes: huIgG1 P329G LALA; also called MFE-H27 / MFE-L26
B14: P1AE3120 (antibody, IgG1, V domains shown)
VH: B2 VH with A16S, M70I, T74E, I76T, R85S, D89E
VL: B3 VL with E1D, P30S, V77L
notes: huIgG1 P329G LALA; also called MFE-H29 / MFE-L24
B15: P1AE3095 (antibody, IgG1, V domains shown)
VH: B2 VH
VL: B3 VL with Y35L, N52S, A54Q
notes: huIgG1 P329G LALA; also called MFE-H24 / MFE-L29
B16: P1AE3094 (antibody, IgG1, V domains shown)
VH: B2 VH with F27Y, N28T, I29F
VL: B3 VL with Y35L, N52S, A54Q
notes: huIgG1 P329G LALA; also called MFE-H25 / MFE-L29
B17: P1AE3103 (antibody, IgG1, V domains shown)
VH: B2 VH with T72R
VL: B3 VL
notes: huIgG1 P329G LALA; also called MFE-H28 / MFE-L27; huMFE23-L27-H28
B18: P1AE3090 (antibody, IgG1, V domains shown)
VH: B2 VH with A16S, M70I, T74E, I76T, R85S, D89E
VL: B3 VL with Y35L, N52S, A54Q
notes: huIgG1 P329G LALA; also called MFE-H29 / MFE-L29
B19: P1AE3101 (antibody, IgG1, V domains shown)
VH: B2 VH
VL: B3 VL with Y35L
notes: huIgG1 P329G LALA; also called MFE-H24 / MFE-L28; huMFE23-L28-H24
B20: P1AE3108 (antibody, IgG1, V domains shown)
VH: B2 VH with A16S, M70I, T74E, I76T, R85S, D89E
VL: B2 VL
notes: huIgG1 P329G LALA; also called MFE-H29 / MFE-L26
B21: P1AE3104 (antibody, IgG1, V domains shown)
VH: B2 VH with N97A, E98R
VL: B3 VL
notes: huIgG1 P329G LALA; also called MFE-H27 / MFE-L27
B22: P1AE3098 (antibody, IgG1, V domains shown)
VH: B2 VH with N97A, E98R
VL: B3 VL with Y35L
notes: huIgG1 P329G LALA; also called MFE-H27 / MFE-L28
B23: P1AE3096 (antibody, IgG1, V domains shown)
VH: B2 VH with A16S, M70I, T74E, I76T, R85S, D89E
VL: B3 VL with Y35L
notes: huIgG1 P329G LALA; also called MFE-H29 / MFE-L28
B24: P1AE3111 (antibody, IgG1, V domains shown)
VH: B2 VH with D57G, E59N, P62Q
VL: B2 VL
notes: huIgG1 P329G LALA; also called MFE-H26 / MFE-L26
B25: P1AE3119 (antibody, IgG1, V domains shown)
VH: B2 VH
VL: B3 VL with P30S, V77L
notes: huIgG1 P329G LALA; also called MFE-H24 / MFE-L25
B26: P1AE3102 (antibody, IgG1, V domains shown)
VH: B2 VH with A16S, M70I, T74E, I76T, R85S, D89E
VL: B3 VL
notes: huIgG1 P329G LALA; also called MFE-H29 / MFE-L27; huMFE23-L27-H29
B27: P1AE3099 (antibody, IgG1, V domains shown)
VH: B2 VH with D57G, E59N, P62Q
VL: B3 VL with Y35L
notes: huIgG1 P329G LALA; also called MFE-H26 / MFE-L28
B28: P1AE3106 (antibody, IgG1, V domains shown)
VH: B2 VH with F27Y, N28T, I29F
VL: B3 VL
notes: huIgG1 P329G LALA; also called MFE-H25 / MFE-L27
B29: P1AE3114 (antibody, IgG1, V domains shown)
VH: B2 VH with A16S, M70I, T74E, I76T, R85S, D89E
VL: B3 VL with P30S, V77L
notes: huIgG1 P329G LALA; also called MFE-H29 / MFE-L25
B30: P1AE3109 (antibody, IgG1, V domains shown)
VH: B2 VH with T72R
VL: B2 VL
notes: huIgG1 P329G LALA; also called MFE-H28 / MFE-L26
B31: P1AE3093 (antibody, IgG1, V domains shown)
VH: B2 VH with D57G, E59N, P62Q
VL: B3 VL with Y35L, N52S, A54Q
notes: huIgG1 P329G LALA; also called MFE-H26 / MFE-L29
B32: P1AE3091 (antibody, IgG1, V domains shown)
VH: B2 VH with T72R
VL: B3 VL with Y35L, N52S, A54Q
notes: huIgG1 P329G LALA; also called MFE-H28 / MFE-L29
B33: P1AE3118 (antibody, IgG1, V domains shown)
VH: B2 VH with F27Y, N28T, I29F
VL: B3 VL with P30S, V77L
notes: huIgG1 P329G LALA; also called MFE-H25 / MFE-L25

What follows are binders tested against T1, human CEACAM5 (carcinoembryonic …) (assay: flow cytometry, MKN45 cells).
Set-up: AUC: unit not given beside the values

| AUC | EC50 [nM] | Binder |
| --- | --- | --- |
| 83500 | 9.36 | B1 |
| 757 | – | B2 |
| 91200 | 5.83 | B3 |
| 443 | – | B4 |
| 1180 | – | B5 |
| 551 | – | B6 |
| 482 | – | B7 |
| 55900 | 7.92 | B8 |
| 74100 | 9.89 | B9 |
| 98700 | 6.45 | B10 |
| 17500 | 17.1 | B11 |
| 10200 | 20.7 | B12 |
| 547 | – | B13 |
| 24200 | 12.4 | B14 |
| 84900 | 11.1 | B15 |
| 6910 | 47.6 | B16 |
| 92400 | 5.88 | B17 |

| AUC | EC50 [nM] | Binder |
| --- | --- | --- |
| 61800 | 42 | B18 |
| 104000 | 6.58 | B19 |
| 2090 | – | B20 |
| 414 | – | B21 |
| 1190 | – | B22 |
| 87800 | 10.5 | B23 |
| 578 | – | B24 |
| 10300 | 41.9 | B25 |
| 91500 | 5.41 | B26 |
| 95300 | 10.2 | B27 |
| 1130 | – | B28 |
| 12800 | 30.6 | B29 |
| 695 | – | B30 |
| 68100 | 16.1 | B31 |
| 83100 | 14.6 | B32 |
| 559 | – | B33 |

These binders were tested against T1, human CEACAM5 (carcinoembryonic …) (assay: flow cytometry, MKN-45 cells, goat F(ab')2 anti-human Fcγ-PE, gMFI).

| binding result | Binder |
| --- | --- |
| no binding (tested: about 300 nM) | B2 |
| no binding (tested: about 300 nM) | B4 |
| no binding (tested: about 300 nM) | B5 |
| no binding (tested: about 300 nM) | B6 |
| no binding (tested: about 300 nM) | B7 |
| no binding (tested: about 300 nM) | B13 |
| no binding (tested: about 300 nM) | B20 |
| no binding (tested: about 300 nM) | B21 |
| no binding (tested: about 300 nM) | B22 |
| no binding (tested: about 300 nM) | B24 |
| no binding (tested: about 300 nM) | B28 |
| no binding (tested: about 300 nM) | B30 |
| no binding (tested: about 300 nM) | B33 |
